Test results reported in patent publication US20100104555A1 (Scripps Research, published 2010).

B4: maltose binding protein fused-large extracellular loop of CD81 (receptor)
chain: FVNKDQIAKDVKQFYDQALQQAVVDDDANNAKAVVKTFHETLDCCGSSTLTALTTSVLKNNLCPSGSNIISNLFKEDCHQKIDDLFSGK
notes: also called CD81-LEL; MBP-fused CD81-LEL
B6: E2412-611 (other)
chain: QLINTNGSWHINSTALNCNESLNTGWLAGLFYQHKFNSSGCPERLASCRRLTDFAQGWGPISYANGSGLDERPYCWHYPPRPCGIVPAKSVCGPVYCFTPSPVVVGTTDRSGAPTYSWGANDTDVFVLNNTRPPLGNWFGCTWMNSTGFTKVCGAPPCVIGGVGNNTLLCPTDCFRKHPEATYSRCGSGPWITPRCMVDYLEDYKDDDDK
B9: E2492-645 (other)
chain: RPCGIVPAKSVCGPVYCFTPSPVVVGTTDRSGAPTYSWGANDTDVFVLNNTRPPLGNWFGCTWMNSTGFTKVCGAPPCVIGGVGNNTLLCPTDCFRKHPEATYSRCGSGPWITPRCMVDYPYRLWHYPCTINYTIFKVRMYVGGVEHRLEAACNLEDYKDDDDK
B16: E2456-645 (other)
chain: LASCRRLTDFAQGWGPISYANGSGLDERPYCWHYPPRPCGIVPAKSVCGPVYCFTPSPVVVGTTDRSGAPTYSWGANDTDVFVLNNTRPPLGNWFGCTWMNSTGFTKVCGAPPCVIGGVGNNTLLCPTDCFRKHPEATYSRCGSGPWITPRCMVDYPYRLWHYPCTINYTIFKVRMYVGGVEHRLEAACNLEDYKDDDDK

What was measured:
[1] = molecular target: B4; test: capture ELISA, coated CD81-LEL captures Flag-tagged E2 mutant
[2] = molecular target: vaccinia-expressed E1E2 (isolate HCV-1) (hepatitis C virus genotype 1a, isolate …, UniProt P26664 192-383; P26664 384-746); test: ELISA on lectin-captured E1E2; apparent affinity = half-maximal binding
[3] = molecular target: T1, E2412-589 (hepatitis C virus isolate H77, UniProt P27958 412-588); test: capture ELISA, coated CD81-LEL, 293T supernatant
[4] = molecular target: T2, E2412-574 (hepatitis C virus isolate H77, UniProt P27958 412-574); test: capture ELISA, coated CD81-LEL, 293T supernatant
[5] = molecular target: T3, E1E2 of HCV isolate H77 (hepatitis C virus genotype 1a, isolate …, UniProt P27958 192-383; P27958 384-746); test: cell-based or functional assay
[6] = molecular target: T3, E1E2 of HCV isolate H77; test: ELISA on lectin-captured E1E2; apparent affinity = half-maximal binding
[7] = molecular target: B4; test: capture ELISA, coated CD81-LEL, 293T supernatant
[8] = molecular target: T3, E1E2 of HCV isolate H77; test: ELISA, mAb inhibits E1E2 (H77) binding to coated CD81-LEL
[9] = molecular target: B16; test: capture ELISA, coated mAb, 293T supernatant
[10] = molecular target: T1, E2412-589; test: capture ELISA, coated mAb, 293T supernatant
[11] = molecular target: B6; test: capture ELISA, coated mAb, 293T supernatant
[12] = molecular target: B9; test: capture ELISA, coated mAb, 293T supernatant
[13] = molecular target: T2, E2412-574; test: capture ELISA, coated mAb, 293T supernatant
[14] = molecular target: B4; test: capture ELISA

B1: E2ΔN5N9 (other)
chain: QLINTNGSWHINSTALNCNESLNTGWLAGLFYQHKFNSSGCPERLASCGSSGCWHYPPRPCGIVPAKSVCGPVYCFTPSPVVVGTTDRSGAPTYSWGANDTDVFVLNNTRPPLGNWFGCTWMNSTGFTKVCGAPPCGSSGCPTDCFRKHPEATYSRCGSGPWITPRCMVDYPYRLWHYPCTINYTIFKVRMYVGGVEHRLEAACNLEDYKDDDDK
binding result [1]: binds

B2: MAb AR3D (antibody, V domains shown)
VH: LEQSGAEVKKPGSSVKVSCKASGDTFRSYVITWARQAPGQGLEWMGAIIPFFGTTNLAQKFQGRVTITADESTKTVYMDLSSLRSDDTAVYYCAKAGDLSVGGVLAGGVPHLRHFDPWGQGTLVTVSS
VL: ELTQSPGTLSLSPGERATLSCRAGQTVASNSLAWYQHKPGQAPRLLIYGASIRASGIPDRFSGSGSGTDFTLTISRLEPEDFAVYYCQQYGLSPSTFGQGTRLEIKR
notes: also called IgG1 AR3D
EC50 [2]: 2.4 nM

B3: MAb AR3B (antibody, V domains shown)
VH: LEQSGPEVKKPGSSVKVSCKDSGDTFNEPVTWVRQAPGQGLEWIGGIIPAFGVTKYAQKFQGRVIISADASTATAYLELSSLRSEDTAVYYCAKVGLRGIVMVGGLAMNWLDPWGQGTQVTVSS
VL: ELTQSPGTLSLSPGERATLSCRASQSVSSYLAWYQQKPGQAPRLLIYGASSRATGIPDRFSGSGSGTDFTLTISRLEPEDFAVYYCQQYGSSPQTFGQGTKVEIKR
notes: also called IgG1 AR3B
EC50 [2]: 2 nM

B4
binding result [3]: no binding
binding result [4]: no binding

B5: MAb AR1B (antibody, V domains shown)
VH: LESGGGLVQPGGSLRLSCEASGYYFSSFAMSWVRQTPGKGLEWVSSIAGGTLGRTSYRDSVKGRFTISRDNSKNTVFLHMNNLRPEDTAVYYCAKDPLLFAGGPNWFDHWGQGTLVTVSS
VL: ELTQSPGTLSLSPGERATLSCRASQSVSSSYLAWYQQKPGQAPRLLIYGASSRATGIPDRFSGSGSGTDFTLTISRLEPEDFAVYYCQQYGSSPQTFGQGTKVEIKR
notes: also called IgG1 AR1B
Neutralizing activity (IC50), HCVpp [5]: > 50 µg/mL
EC50 [6]: 0.6 nM
EC50 [2]: 0.4 nM

B6
binding result [7]: no binding

B7: E2ΔN9 (other)
chain: QLINTNGSWHINSTALNCNESLNTGWLAGLFYQHKFNSSGCPERLASCRRLTDFAQGWGPISYANGSGLDERPYCWHYPPRPCGIVPAKSVCGPVYCFTPSPVVVGTTDRSGAPTYSWGANDTDVFVLNNTRPPLGNWFGCTWMNSTGFTKVCGAPPCGSSGCPTDCFRKHPEATYSRCGSGPWITPRCMVDYPYRLWHYPCTINYTIFKVRMYVGGVEHRLEAACNLEDYKDDDDK
binding result [1]: binds

B8: MAb AR3C (antibody, V domains shown)
VH: LEQSGAEVKKPGSSVKVSCETSGGTLDNYALNWVRQAPGQGLEWIGGVVPLFGTTRNAQKFQGRVTISDDKSTGTGHMELRSLRSEDTAVYYCVRSVTPRYCGGGFCYGEFDYWGQGTLVTVSS
VL: ELTQSPATLSVSPGERATLSCRASQSVSSNLAWYQQKPGQAPRLLIYGASTRATGIPARFSGSGSGTDFTLTVSRLEPEDSAVYFCQQYRSPLTFGGGTKVEIKR
notes: also called IgG1 AR3C
Neutralizing activity (IC50), HCVpp [5]: 1 µg/mL
IC50 [8]: 2 nM
EC50 [6]: 2.3 nM
EC50 [2]: 1.4 nM
binding result [9]: no binding
binding result [10]: no binding
binding result [11]: no binding
binding result [12]: no binding
binding result [13]: no binding

B9
binding result [7]: no binding

B10: MAb AR1A (antibody, V domains shown)
VH: LEQSGAEVKKPGSSVKVSCRASGSPYSSYTITWVRQAPGQGLEWMGGIILMTGKANYAQKFQGRVTITADRATATAYMEMSSLTSDDTAIYYCARDPYVYAGDDVRSLSRWGQGTPVIVSS
VL: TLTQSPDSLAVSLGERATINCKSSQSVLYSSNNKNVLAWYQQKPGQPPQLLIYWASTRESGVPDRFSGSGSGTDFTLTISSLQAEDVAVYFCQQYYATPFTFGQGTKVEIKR
notes: also called IgG1 AR1A
Neutralizing activity (IC50), HCVpp [5]: > 50 µg/mL
IC50 [8]: 5.7 nM
EC50 [6]: 3.8 nM
EC50 [2]: 2.6 nM

B11: E2ΔTM (other)
chain: ETHVTGGNAGRTTAGLVGLLTPGAKQNIQLINTNGSWHINSTALNCNESLNTGWLAGLFYQHKFNSSGCPERLASCRRLTDFAQGWGPISYANGSGLDERPYCWHYPPRPCGIVPAKSVCGPVYCFTPSPVVVGTTDRSGAPTYSWGANDTDVFVLNNTRPPLGNWFGCTWMNSTGFTKVCGAPPCVIGGVGNNTLLCPTDCFRKHPEATYSRCGSGPWITPRCMVDYPYRLWHYPCTINYTIFKVRMYVGGVEHRLEAACNWTRGERCDLEDRDRSELSPLLLSTTQWQVLPCSFTTLPALSTGLIHLHQNIVDVQYLYGVGSSIASWAIKWELEDYKDDDDK
binding result [14]: binds

B12: E2ΔN5 (other)
chain: QLINTNGSWHINSTALNCNESLNTGWLAGLFYQHKFNSSGCPERLASCGSSGCWHYPPRPCGIVPAKSVCGPVYCFTPSPVVVGTTDRSGAPTYSWGANDTDVFVLNNTRPPLGNWFGCTWMNSTGFTKVCGAPPCVIGGVGNNTLLCPTDCFRKHPEATYSRCGSGPWITPRCMVDYPYRLWHYPCTINYTIFKVRMYVGGVEHRLEAACNLEDYKDDDDK
binding result [1]: binds

B13: E2412-645 (other)
chain: QLINTNGSWHINSTALNCNESLNTGWLAGLFYQHKFNSSGCPERLASCRRLTDFAQGWGPISYANGSGLDERPYCWHYPPRPCGIVPAKSVCGPVYCFTPSPVVVGTTDRSGAPTYSWGANDTDVFVLNNTRPPLGNWFGCTWMNSTGFTKVCGAPPCVIGGVGNNTLLCPTDCFRKHPEATYSRCGSGPWITPRCMVDYPYRLWHYPCTINYTIFKVRMYVGGVEHRLEAACNLEDYKDDDDK
binding result [14]: binds

B14: MAb AR2A (antibody, V domains shown)
VH: LEQSGAEMKKPGASLKVSCKTSGYTFDDYGVTWVRQAPGQGLEWMGWISAYSGNTFYARKFQGRVTMTTDPSTRTAYMELRSLRSDDTAVYFCARDRGLAINGVVFPYFGLDVWGQGTTVTVSS
VL: ELTQSPVSLPVTPGEPASISCRSSQSLLHSNGNHYLDWYLQKPGQSPQLLMYLGSNRASGVPDRFSGSGSGTDFTLKISRVEAEDVGVYYCMQGLQTPWTFGQGTKVEIKR
notes: also called IgG1 AR2A
Neutralizing activity (IC50), HCVpp [5]: 1 µg/mL
EC50 [6]: 1.6 nM
EC50 [2]: 3.1 nM

B15: E2412-661 (other)
chain: QLINTNGSWHINSTALNCNESLNTGWLAGLFYQHKFNSSGCPERLASCRRLTDFAQGWGPISYANGSGLDERPYCWHYPPRPCGIVPAKSVCGPVYCFTPSPVVVGTTDRSGAPTYSWGANDTDVFVLNNTRPPLGNWFGCTWMNSTGFTKVCGAPPCVIGGVGNNTLLCPTDCFRKHPEATYSRCGSGPWITPRCMVDYPYRLWHYPCTINYTIFKVRMYVGGVEHRLEAACNWTRGERCDLEDRDRSELEDYKDDDDK
binding result [14]: binds

B16
binding result [7]: no binding
